{"source": "paper PMC10145227", "proteins": {"B1": {"name": "DSPAα1: ANGlyα1 + U (protein)", "parent chain": "MVNTMKTKLLCVLLLCGAVFSLPRQETYRQLARGSRAYGVACKDEITQMTYRRQESWLRPEVRSKRVEHCQCDRGQARCHTVPVNSCSEPRCFNGGTCWQAVYFSDFVCQCPAGYTGKRCEVDTRATCYEGQGVTYRGTWSTAESRVECINWNSSLLTRRTYNGRMPDAFNLGLGNHNYCRNPNGAPKPWCYVIKAGKFTSESCSVPVCSKATCGLRKYKEPQLHSTGGLFTDITSHPWQAAIFAQNRRSSGERFLCGGILISSCWVLTAAHCFQESYLPDQLKVVLGRTYRVKPGEEEQTFKVKKYIVHKEFDDDTYNNDIALLQLKSDSPQCAQESDSVRAICLPEANLQLPDWTECELSGYGKHKSSSPFYSEQLKEGHVRLYPSSRCAPKFLFNKTVTNNMLCAGDTRSGEIYPNVHDACQGDSGGPLVCMNDNHMTLLGIISWGVGCGEKDVPGVYTKVTNYLGWIRDNMHL"}, "B2": {"name": "DSPAα1: QNGlyα1-2 (protein)", "parent chain": "B1 parent chain"}, "B3": {"name": "DSPAα1: QNGlyα1 (protein)", "parent chain": "B1 parent chain"}, "B4": {"name": "DSPAα1: QNGlyα1-1 (protein)", "parent chain": "B1 parent chain"}, "B5": {"name": "DSPAα1: ANGlyα1 + 2 (protein)", "parent chain": "B1 parent chain"}}, "key": {"[1]": {"assay": "S-2765 activity after 1 h at 30-90 °C or pH 3-12", "settings": "control: rDSPAα1"}, "[2]": {"assay": "purified protein yield from P. pastoris", "settings": "control: rDSPAα1"}, "[3]": {"assay": "fibrin plate lysis area, t-PA standard", "settings": "control: rDSPAα1"}, "[4]": {"assay": "nanoDSF, F350/F330 ratio and scattering", "settings": "control: rDSPAα1"}, "[5]": {"assay": "ratio of S-2765 Kcat/Km, fibrin/fibrinogen", "settings": "control: rDSPAα1"}, "[6]": {"assay": "plasma plasminogen ELISA, slope versus time", "settings": "control: rDSPAα1"}, "[7]": {"assay": "ELISA time course after dosing", "settings": "control: rDSPAα1"}, "[8]": {"assay": "recanalization rate, FeCl3 carotid thrombosis", "settings": "control: rDSPAα1"}, "[9]": {"assay": "ELISA, slope of concentration versus time", "settings": "control: rDSPAα1"}, "[10]": {"assay": "hindlimb vein bleeding time after dosing", "settings": "control: rDSPAα1"}, "[11]": {"assay": "H&E thrombus section score (higher is worse)", "settings": "control: rDSPAα1"}, "[12]": {"assay": "thrombus length, dry and wet weight", "settings": "control: rDSPAα1"}, "[13]": {"assay": "S-2765 hydrolysis kinetics, fibrinogen cofactor", "settings": "control: rDSPAα1"}, "[14]": {"assay": "S-2765 hydrolysis kinetics, no cofactor", "settings": "glycan lost; control: rDSPAα1"}, "[15]": {"assay": "S-2765 hydrolysis kinetics, fibrin cofactor", "settings": "control: rDSPAα1"}, "[16]": {"assay": "blood routine examination, 1 h after dosing", "settings": "glycan gained; control: rDSPAα1"}}}
{"protein": "B1", "values": [{"measurement": "stability_or_folding", "setting": "[1]; glycan gained", "result": "no change"}, {"measurement": "expression_or_secretion, percent_of_wt", "setting": "[2]; glycan gained", "result": "no change"}, {"measurement": "enzymatic_activity, percent_of_wt", "setting": "[3]; glycan gained", "result": "decreases"}, {"measurement": "stability_or_folding", "setting": "[4]; glycan gained", "result": "no change"}]}
{"protein": "B2", "values": [{"measurement": "stability_or_folding", "setting": "[1]; glycan lost", "result": "no change"}, {"measurement": "expression_or_secretion, percent_of_wt", "setting": "[2]; glycan lost", "result": "decreases"}, {"measurement": "enzymatic_activity, percent_of_wt", "setting": "[3]; glycan lost", "result": "decreases"}, {"measurement": "other: fibrin selectivity, other: ratio Fbn/Fbg", "setting": "[5]; glycan lost", "result": "decreases, 8.500 vs 20.800"}, {"measurement": "stability_or_folding", "setting": "[4]; glycan lost", "result": "no change"}]}
{"protein": "B3", "values": [{"measurement": "other: plasminogen activation in rats", "setting": "[6]; glycan lost", "result": "abolishes"}, {"measurement": "other: plasma D-dimer course in rats", "setting": "[7]; glycan lost", "result": "increases"}, {"measurement": "other: plasma α2-AP concentration in rats", "setting": "[7]; glycan lost", "result": "no change"}, {"measurement": "stability_or_folding", "setting": "[1]; glycan lost", "result": "no change"}, {"measurement": "expression_or_secretion, percent_of_wt", "setting": "[2]; glycan lost", "result": "decreases"}, {"measurement": "enzymatic_activity, percent_of_wt", "setting": "[3]; glycan lost", "result": "abolishes"}, {"measurement": "other: thrombolytic efficacy in rats, other: recanalized rats", "setting": "[8]; glycan lost", "result": "abolishes, 0/8 vs 4/8"}, {"measurement": "other: fibrin selectivity, other: ratio Fbn/Fbg", "setting": "[5]; glycan lost", "result": "decreases, 0.700 vs 20.800"}, {"measurement": "stability_or_folding", "setting": "[4]; glycan lost", "result": "no change"}, {"measurement": "other: plasma FDP rise in rats", "setting": "[9]; glycan lost", "result": "decreases"}, {"measurement": "other: bleeding time in rats", "setting": "[10]; glycan lost", "result": "increases"}, {"measurement": "other: thrombolytic efficacy in rats, other: total score", "setting": "[11]; glycan lost", "result": "decreases, 103.333 ± 0.816 vs 61.667 ± 1.966"}, {"measurement": "other: thrombolytic efficacy in rats", "setting": "[12]; glycan lost", "result": "abolishes"}]}
{"protein": "B4", "values": [{"measurement": "enzymatic_activity, kcat_Km", "setting": "[13]; glycan lost", "result": "no change, 292.580 ± 1.780 vs 282.240 ± 13.070"}, {"measurement": "stability_or_folding", "setting": "[1]; glycan lost", "result": "no change"}, {"measurement": "enzymatic_activity, kcat_Km", "setting": "[14]", "result": "no change, 38.800 ± 0.780 vs 34.830 ± 2.350"}, {"measurement": "expression_or_secretion, percent_of_wt", "setting": "[2]; glycan lost", "result": "decreases"}, {"measurement": "enzymatic_activity, percent_of_wt", "setting": "[3]; glycan lost", "result": "decreases"}, {"measurement": "other: fibrin selectivity, other: ratio Fbn/Fbg", "setting": "[5]; glycan lost", "result": "decreases, 1.100 vs 20.800"}, {"measurement": "enzymatic_activity, kcat_Km", "setting": "[15]; glycan lost", "result": "decreases, 333.760 ± 20.680 vs 5883.440 ± 983.570"}, {"measurement": "stability_or_folding", "setting": "[4]; glycan lost", "result": "no change"}]}
{"protein": "B5", "values": [{"measurement": "other: plasminogen activation in rats", "setting": "[6]; glycan gained", "result": "decreases"}, {"measurement": "other: plasma D-dimer course in rats", "setting": "[7]; glycan gained", "result": "changes"}, {"measurement": "other: plasma PAI concentration in rats", "setting": "[7]; glycan gained", "result": "no change"}, {"measurement": "other: plasma α2-AP concentration in rats", "setting": "[7]; glycan gained", "result": "decreases"}, {"measurement": "other: platelet count in rats, other: PLT", "setting": "[16]", "result": "no change, 712.667 ± 16.010 vs 724.333 ± 50.817"}, {"measurement": "enzymatic_activity, kcat_Km", "setting": "[13]; glycan gained", "result": "decreases, 248.960 ± 6.330 vs 282.240 ± 13.070"}, {"measurement": "stability_or_folding", "setting": "[1]; glycan gained", "result": "no change"}, {"measurement": "expression_or_secretion, percent_of_wt", "setting": "[2]; glycan gained", "result": "no change"}, {"measurement": "enzymatic_activity, percent_of_wt", "setting": "[3]; glycan gained", "result": "decreases"}, {"measurement": "other: thrombolytic efficacy in rats, other: recanalized rats", "setting": "[8]; glycan gained", "result": "decreases, 3/8 vs 4/8"}, {"measurement": "other: fibrin selectivity, other: ratio Fbn/Fbg", "setting": "[5]; glycan gained", "result": "decreases, 13.100 vs 20.800"}, {"measurement": "enzymatic_activity, kcat_Km", "setting": "[15]; glycan gained", "result": "decreases, 3257.040 ± 561.250 vs 5883.440 ± 983.570, The Kcat/Km of ANGlyα1 + 2 was 79% of rDSPAα1 when fibrin was used as a cofactor"}, {"measurement": "stability_or_folding", "setting": "[4]; glycan gained", "result": "no change"}, {"measurement": "other: plasma FDP rise in rats", "setting": "[9]; glycan gained", "result": "increases"}, {"measurement": "other: bleeding time in rats", "setting": "[10]; glycan gained", "result": "no change"}, {"measurement": "other: thrombolytic efficacy in rats, other: total score", "setting": "[11]; glycan gained", "result": "decreases, 92.500 ± 1.049 vs 61.667 ± 1.966"}, {"measurement": "other: thrombolytic efficacy in rats", "setting": "[12]; glycan gained", "result": "decreases"}]}
